Positions of bridges follow the written chain, without caps; N, C: chain ends. No end group written: not given here. *: point of attachment. Biotin = O=C1N[C@H]2[C@H](CS[C@H]2CCCCC(=O)*)N1
Columns and labels:
[1] = system: lung microvascular endothelial cells; experiment: Whole-cell patch clamp, membrane conductance in lung microvascular endothelial cells; assay type: cell-based, mouse
Text: (§1) Animals, cells and reagents. Male CBA/J or C57BL/6 mice, as well as male TNFR ½^0/0 C57BL/6 mice deficient in TNF receptors (Bruce et al., 1996) provided by H. Bluethmann, F. Hoffmann-La Roche, Basel, Switzerland, were used at the age of 8–10 weeks. Their care was in accordance with institutional guidelines. Lung microvascular endothelial cells were isolated from CBA/J mice and characterized as described (Jackson et al., 1990) using magnetic beads (Dynabeads M-450, Dynal, Oslo, Norway), covalently bound to a purified rat-anti-mouse PECAM-1 monoclonal antibody (donated by B. Imhof, University of Geneva). Microvascular lung endothelial cells were resuspended in DMEM containing 2 mM L-glutamine, 100 U/ml penicillin, […], 20% FCS, 40 U/ml heparin and […] endothelial cell growth supplement (Brunschwig Chemie, Basel, Switzerland). For patch clamp experiments, cells were plated onto 35×10 mm easy grip Petri dishes (Beckton Dickinson, Plymouth, UK), pre-coated with 0.2% gelatin (Sigma, Buchs, Switzerland). Resident peritoneal macrophages, isolated in ice cold RPMI containing antibiotics and 10 U/ml Heparin, were left to adhere onto 35×10 mm easy grip Petri dishes for 4 h, after which the non-adherent cells were removed. Cells were grown in RPMI 1640 containing 2 mM L-glutamine, 100 U/ml penicillin, 10 μpg/ml streptomycin and 10% fetal bovine serum (all from Gibco). For patch clamp, the macrophages ware used 24 h after isolation.
Electrophysiology. Cells were pretreated for 30 min with TNF, mutTNF and tip peptides at 37° C. in a buffer consisting of 145 mM NaCl, 3 mM KCl, 2mM CaCl2, 2mM MgCl2, 10 mM D-glucose, and 10mM Hepes, and pH-adjusted with NaOH to required value. Cells were then washed with the same buffer pH-adjusted at 7.3, and experiments were performed using the tight-seal, whole-cell recording technique. Currents were recorded with an Axopatch-200A amplifier (Axon Instrument Inc, Foster City, Calif., USA), low pass-filtered at 1 kHz. Digitalization and off-line analysis was performed using the WCP program (J. Dempster, Strathclyde Electrophysiology Software, Glasgow, UK). Patch pipettes were pulled from borosilicate glass and fire polished to have an open resistance of 3–5 MW with an internal solution containing […], 2 mM MgCl2, 10mM EGTA, 20 mM TEA-Cl, 10 mM D-glucose 10 mM Hepes, pH-adjusted to 7.3 with CsOH. Series resistances were kept under 10 MW. Capacitance and series resistance compensation were applied and set to 70%. All experiments were done at room temperature. Results are given as mean ±SEM, unless otherwise indicated. Analysis of variance was performed on currents and membrane conductance values, with post-hoc Dunn-Bonferroni test for significance of differences observed between two groups. A P value of 0.05 was considered significant.

[2] = system: resident peritoneal macrophages; experiment: Whole-cell patch clamp in resident peritoneal macrophages; assay type: cell-based, mouse; details: 30 min preincubation, acidic pH
Text: as §1, with “Cells were grown in RPMI 1640 containing 2 mM L-glutamine, 100 U/ml penicillin, 10 μpg/ml streptomycin and 10% fetal bovine serum (all from Gibco). For patch clamp, the macrophages ware used 24 h after isolation.” left out
(§2) Electrophysiology. […] Currents were recorded with an Axopatch-200A amplifier (Axon Instrument Inc, Foster City, Calif., USA), low pass-filtered at 1 kHz. […]

[3] = system: resident peritoneal macrophages from mice deficient in both TNF receptor-1 and -2; experiment: Whole-cell patch clamp in resident peritoneal macrophages of TNFR1/2-deficient mice; assay type: cell-based, mouse; details: cells lacking TNF receptors
Text: as §1, with “Cells were grown in RPMI 1640 containing 2 mM L-glutamine, 100 U/ml penicillin, 10 μpg/ml streptomycin and 10% fetal bovine serum (all from Gibco). For patch clamp, the macrophages ware used 24 h after isolation.” left out
as §2

[4] = Chloride efflux from SPQ-containing liposomes
Protocol: Preparation of liposomes. Large unilamellar liposomes were prepared by reverse phase evaporation as previously described (Vecsey-Semjen et al., 1996). Liposomes were prepared of either 100% egg phosphatidylglycerol (EPG) or a mixture of EPC and EPG (1:1 W/W) in a buffer containing 100 mM KCl, 20 mM N-[2-Hydroxyethyl]piperazine-N′-[2-ethane-sulfonic acid] (HEPES), pH 7.4 and 1.5 mg/ml of 6-methoxy-N-(3-sulfopropyl)quinolinium (SPQ).
Choride efflux measurements. All fluorescence experiments were carried out using a PTI spectrofluorometer equipped with a thermostated cell holder (37° C.). The dye was excited at 350 nm and emission was recorded at 422 nm, both excitation and emission band widths were set to 5 nm. Liposomes were diluted to a final concentration of 50 μg/ml in a solution containing 100 mM KNO3 and 20 mM MES pH 6.1 or 20 mM HEPES, pH 7.4. Wild type and mutant TNF were added to a final concentration of 3 μg/ml.

isolated rat lungs = experiment: Isolated lung perfusion experiments (blood perfused, flooded with NaCl); details: after injection of 2 ml NaCl solution; 1 mg/lung
Protocol: Lungs of female Whistar rats weighing about 300 g were isolated as described in DeCampos et al. (1993). The lungs were injected intratracheally with either 500 μl of sterile […], wild type murine TNF (1 μg/lung) or mTNF tip peptide (Ltip (SEQ ID NO:6), see above; 1 mg/lung). Subsequently, the lungs were perfused with blood isolated from the same rat. Thirty minutes later, the lungs were injected intratracheally with 2 ml of sterile […] solution which leads to a weight increase of about 2 g (FIG. 5). The weight evolution was then followed continuously for 150 min (FIG. 5).

[5] = Tryptophan fluorescence (acidic unfolding); assay type: physicochemical
Protocol: Tryptophan fluorescence. Fluorescence measurements were made with a PTI spectrofluorimeter. The excitation wavelength was 295 nm and slit widths were 5 nm and 2.5 nm for excitation and emission respectively. For each recorded spectrum, the Raman scatter contribution was removed by subtraction of a buffer blank. All buffers contained 150 mM NaCl, and 20 mM of N-[2-morpholino] ethane-sulfonic acid (MES) buffer at the desired pH. The samples were allowed to incubate for 1 h 30 at the desired pH before measuring the emission spectrum. The wild type and mutant TNF concentrations were 6 μg/ml.

[6] = Quenching of tryptophan fluorescence by brominated lipids; details: acidic pH
Text: In order to investigate whether chloride efflux was due to membrane binding or membrane insertion of TNF, we have analyzed whether brominated lipids were able to quench the intrinsic fluorescence of TNF and mutTNF upon membrane interaction. Brominated lipids have been useful in determining the topology of membrane proteins (Bolon et al., 1990) (Markello et al., 1985) as well as studying the membrane interaction of pore-forming toxins (Gonzalez-Manas et al., 1992) (Van der Goot et al., 1991) (Vecsey-Semjen et al., 1997). TNF contains two tryptophan residues, one at the top of the receptor binding domain and one at the top of the so called tip domain. If the tip of the TNF trimer were to insert into the lipid bilayer, the fluorescence of Trp-113 should be quenched upon insertion into liposomes composed of dioleoylphosphatidylglycerol that had bromines attached at positions 9 and 10 of the acyl chains. We have indeed previously observed that tryptophans located at the boundary between the lipid head groups and the acyl chains were succeptible to bromide quenching.

[7] = compared to wild-type mTNF in vivo; cited from earlier work
[8] = system: murine model of peritonitis; details: cited from earlier work
trypanosome = details: compared to wild type TNF; cited from earlier work
[9] = 30 min preincubation at acidic pH (pH 6), TNF, mutTNF 100 ng/ml, peptides 100 μg/ml

Molecule | induced increase in conductance in presence of amiloride ([1]; 100 μM amiloride added during pretreatment at pH 6.0) | whole cell current / membrane conductance [1, 9] | whole cell current / membrane conductance ([1]; preincubation at pH 7.3 (neutral pH)) | whole cell current [2] | whole cell current [3] | change in SPQ fluorescence / interaction with membranes ([4]; peptide concentrations up to 300 μg/ml, neutral, acidic or 1:1 lipids) | start of weight loss (isolated rat lungs) | acidic unfolding ([5]; acidification of the medium) | maximum emission of tryptophan fluorescence ([5]; pH 4.6) [nm] | maximum emission of tryptophan fluorescence ([5]; pH 6) [nm] | chloride efflux (SPQ fluorescence) ([4]; 100% EPG liposomes, pH 6.1, 3 μg/ml) | interaction with membranes ([4]; neutral pH) | fluorescence quenching by brominated lipids [6] | systemic toxicity [7] | peritonitis-protective effect [8] | trypanolytic and lectin-like affinity to oligosaccharides (trypanosome)
GG-CGPKDTPEGAELKPWYC (Biotin-GGCGPKDTPEGAELKPWYC; disulfide 3-19; listed as Mus musculus) [LTip] | blocked | increased outward, and inward currents | persisted at neutral pH, although less pronounced | increased outward | also active | unable to interact with membranes | started immediately | – | – | – | – | – | – | – | – | –
mutTNF: E.coli-derived recombinant (T104A-E106A-E109A) triple TNF mutant (protein, UniProt P06804 1-235, looked up, variant T104A E106A E109A) MSTESMIRDVELAEEALPQKMGGFQNSRRCLCLSLFSFLLVAGATTLFCLLNFGVIGPQRDEKFPNGLPLISSMAQTLTLRSSSQNSSDKPVAHVVANHQVEEQLEWLSQRANALLANGMDLKDNQLVVPADGLYLVYSQVLFKGQGCPDYVLLTHTVSRFAISYQEKVNLLSAVKSPCPKDAPAGAALKPWYEPIYLGGVFQLEKGDQLSAEVNLPKYLDFAESGQVYFGVIAL | – | completely lacked the conductance activating effect | – | – | – | – | – | able to undergo acidic unfolding | 339 | 318 | even more pronounced than that of wild type TNF | did not interact with membranes | unable to see any fluorescence quenching | significantly reduced systemic toxicity | retains its peritonitis-protective effect | lacks the trypanolytic and lectin-like affinity to oligosaccharides
